B1: Azoarcus group I ribozyme (parent)
chain: GUGCCUUGCGCCGGGAAACCACGCAAGGGAUGGUGUCAAAUUCGGCGAAACCUAAGCGCCCGCCCGGGCGUAUGGCAACGCCGAGCCAAGCUUCGGCGCCUGCGCCGAUGAAGGUGUAGAGACUAGACGGCACCCACCUAAGGCAAACGCUAUGGUGAAGGCAUAGUCCAGGGAGUGGCGAAAGUCACACAAACCGG

This data set covers variants of B1. Description: reverse-splicing fitness (ratio to wild type); higher = more active; in vitro selection; Mg2+ level not given. An outline of the steps: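 An in vitro group I ribozyme library with randomized positions was T7-transcribed and gel-purified. In triplicate, 10 pmol RNA in EPPS pH 7.5 was reacted with 50 pmoles of a 30-nt RNA substrate for 1 h at 37 °C across several added MgCl2 levels (1–48 mM), then stopped with EDTA. Products were reverse transcribed from a substrate-complementary primer, PCR-amplified and sequenced (HiSeq 4000). Fitness is a variant's read proportion after selection over that before, normalised to wild type.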
For the variant GUGCCUUGCGCCGGGAAACCACGCAAGGGAUGGUGUCAAAUUCGGCGAAACCUAAGCGCCCGCCCGGGCGUAUGGCAACGCUGAGCCAAGCUUCGGCGCCUGCGCCGAUGCAGGUGUAGGGACUAGACGGCACCCACCUAAGGCGAACGCUAUGGUGAAGGCAUAGUCUAGGGAGUGGCGAAAGUCACACAAACCGG [C82U A111C A120G A145G C169U], the reverse-splicing fitness was determined as 0.00883. Under GUGCCUUGCGCCGGGAAACCACGCAAGGGAUGGUGUCAAAUUCGGCGAAACCUAAGCGCCCGCCCGGGCGUAUGGCAACGCAGAGCCAAGCUUCGGCGCCUGCGCCGAUGCAGGUGUAGAGACUAGACGGCACCCACCUAAGGCCAACGCUAUGGUGAAGGCAUAGUCCAGGGAGUGGCGAAAGUCACACAAACCGG [C82A A111C A145C] stands 0.212. In the case of GUGCCUUGCGCCGGGAAACCACGCAAGGGAUGGUGUCAAAUUCGGCGAAACCUAAGCGCCCGCCCGGGCGUAUGGCAACGCCGAGCCAAGCUUCGGCGCCUGCGCCGAUGCAGGUGUAGAGACUAGACGGCACCCACCUAAGGCGAACGAUAUGGUGAAGGCAUAGUCAAGGGAGAGGCGAAAGUCACACAAACCGG [A111C A145G C150A C169A U176A], the reverse-splicing fitness was 0.0169. GUGCCUUGCGCCGGGAAACCACGCAAGGGAUGGUGUCAAAUUCGGCGAAACCUAAGCGCCCGCCCGGGCGUAUGGCAACGCCGAGCCAAGCUUCGGCGCCUGCGCCGAUGUAGGUGUAGCGACUAGACGGCACCCACCUAAGGCAAACGUUAUGGUGAAGGCAUAGUCUAGGGAGGGGCGAAAGUCACACAAACCGG [A111U A120C C150U C169U U176G]: the reverse-splicing fitness amounted to 0.00585. Under GUGCCUUGCGCCGGGAAACCACGCAAGGGAUGGUGUCAAAUUCGGCGAAACCUAAGCGCCCGCCCGGGCGUAUGGCAACGCAGAGCCAAGCUUCGGCGCCUGCGCCGAUGUAGGUGUAGGGACUAGACGGCACCCACCUAAGGCGAACGAUAUGGUGAAGGCAUAGUCAAGGGAGCGGCGAAAGUCACACAAACCGG [C82A A111U A120G A145G C150A C169A U176C] stands 0.0248; under GUGCCUUGCGCCGGGAAACCACGCAAGGGAUGGUGUCAAAUUCGGCGAAACCUAAGCGCCCGCCCGGGCGUAUGGCAACGCGGAGCCAAGCUUCGGCGCCUGCGCCGAUGGAGGUGUAGCGACUAGACGGCACCCACCUAAGGCCAACGUUAUGGUGAAGGCAUAGUCAAGGGAGAGGCGAAAGUCACACAAACCGG [C82G A111G A120C A145C C150U C169A U176A], 0.012; under GUGCCUUGCGCCGGGAAACCACGCAAGGGAUGGUGUCAAAUUCGGCGAAACCUAAGCGCCCGCCCGGGCGUAUGGCAACGCCGAGCCAAGCUUCGGCGCCUGCGCCGAUGUAGGUGUAGAGACUAGACGGCACCCACCUAAGGCUAACGAUAUGGUGAAGGCAUAGUCCAGGGAGCGGCGAAAGUCACACAAACCGG [A111U A145U C150A U176C], 0.228. For GUGCCUUGCGCCGGGAAACCACGCAAGGGAUGGUGUCAAAUUCGGCGAAACCUAAGCGCCCGCCCGGGCGUAUGGCAACGCUGAGCCAAGCUUCGGCGCCUGCGCCGAUGGAGGUGUAGGGACUAGACGGCACCCACCUAAGGCAAACGAUAUGGUGAAGGCAUAGUCAAGGGAGCGGCGAAAGUCACACAAACCGG [C82U A111G A120G C150A C169A U176C], the reverse-splicing fitness is 0.0192.

In the case of GUGCCUUGCGCCGGGAAACCACGCAAGGGAUGGUGUCAAAUUCGGCGAAACCUAAGCGCCCGCCCGGGCGUAUGGCAACGCGGAGCCAAGCUUCGGCGCCUGCGCCGAUGGAGGUGUAGAGACUAGACGGCACCCACCUAAGGCAAACGAUAUGGUGAAGGCAUAGUCAAGGGAGCGGCGAAAGUCACACAAACCGG [C82G A111G C150A C169A U176C], the reverse-splicing fitness amounted to 0.0224. Under GUGCCUUGCGCCGGGAAACCACGCAAGGGAUGGUGUCAAAUUCGGCGAAACCUAAGCGCCCGCCCGGGCGUAUGGCAACGCUGAGCCAAGCUUCGGCGCCUGCGCCGAUGAAGGUGUAGCGACUAGACGGCACCCACCUAAGGCAAACGAUAUGGUGAAGGCAUAGUCAAGGGAGGGGCGAAAGUCACACAAACCGG [C82U A120C C150A C169A U176G] stands 0.00426; under GUGCCUUGCGCCGGGAAACCACGCAAGGGAUGGUGUCAAAUUCGGCGAAACCUAAGCGCCCGCCCGGGCGUAUGGCAACGCGGAGCCAAGCUUCGGCGCCUGCGCCGAUGAAGGUGUAGAGACUAGACGGCACCCACCUAAGGCGAACGGUAUGGUGAAGGCAUAGUCUAGGGAGCGGCGAAAGUCACACAAACCGG [C82G A145G C150G C169U U176C], 0.0131. For the variant GUGCCUUGCGCCGGGAAACCACGCAAGGGAUGGUGUCAAAUUCGGCGAAACCUAAGCGCCCGCCCGGGCGUAUGGCAACGCAGAGCCAAGCUUCGGCGCCUGCGCCGAUGAAGGUGUAGUGACUAGACGGCACCCACCUAAGGCAAACGUUAUGGUGAAGGCAUAGUCUAGGGAGUGGCGAAAGUCACACAAACCGG [C82A A120U C150U C169U], the reverse-splicing fitness is 0.00643.

With GUGCCUUGCGCCGGGAAACCACGCAAGGGAUGGUGUCAAAUUCGGCGAAACCUAAGCGCCCGCCCGGGCGUAUGGCAACGCCGAGCCAAGCUUCGGCGCCUGCGCCGAUGAAGGUGUAGUGACUAGACGGCACCCACCUAAGGCAAACGGUAUGGUGAAGGCAUAGUCUAGGGAGAGGCGAAAGUCACACAAACCGG [A120U C150G C169U U176A], the reverse-splicing fitness turned out to be 0.00472. Next, GUGCCUUGCGCCGGGAAACCACGCAAGGGAUGGUGUCAAAUUCGGCGAAACCUAAGCGCCCGCCCGGGCGUAUGGCAACGCGGAGCCAAGCUUCGGCGCCUGCGCCGAUGUAGGUGUAGUGACUAGACGGCACCCACCUAAGGCAAACGAUAUGGUGAAGGCAUAGUCGAGGGAGUGGCGAAAGUCACACAAACCGG [C82G A111U A120U C150A C169G]: 0.00506. Next, GUGCCUUGCGCCGGGAAACCACGCAAGGGAUGGUGUCAAAUUCGGCGAAACCUAAGCGCCCGCCCGGGCGUAUGGCAACGCGGAGCCAAGCUUCGGCGCCUGCGCCGAUGCAGGUGUAGUGACUAGACGGCACCCACCUAAGGCAAACGAUAUGGUGAAGGCAUAGUCAAGGGAGCGGCGAAAGUCACACAAACCGG [C82G A111C A120U C150A C169A U176C]: 0.00453.

The values above are taken from the RNAGym collection of RNA variant scans (doi:10.1093/molbev/msab373).
